Test results reported in publication PMC8205236.

Columns and labels:
[1] = molecular target: FZD5-FZD6 chimeric protein (human); assay: FRET or BRET; NanoBiT/BRET saturation binding on live HEK293A cells (setup 1): eGFP-WNT-3A conditioned medium 16.7 pM to 16.7 nM, 5% FBS, 10 mM HEPES, 240 min at 37 °C, then LgBiT and furimazine for 10 min; one-site specific model (normalised logarithmic fits for pKd)
[2] = molecular target: FZD5-FZD7 chimeric protein (human); assay: as above

eGFP-tagged mouse WNT-3A, sequence (P27467 19-352): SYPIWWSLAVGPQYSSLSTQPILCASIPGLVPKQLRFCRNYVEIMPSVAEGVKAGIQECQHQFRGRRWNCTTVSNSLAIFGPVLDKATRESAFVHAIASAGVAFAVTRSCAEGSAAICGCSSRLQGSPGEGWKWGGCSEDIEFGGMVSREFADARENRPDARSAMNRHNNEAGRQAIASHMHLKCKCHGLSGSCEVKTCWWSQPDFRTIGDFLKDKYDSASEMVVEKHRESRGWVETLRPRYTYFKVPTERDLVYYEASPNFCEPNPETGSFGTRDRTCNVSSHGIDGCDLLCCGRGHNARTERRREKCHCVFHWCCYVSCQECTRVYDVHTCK

Kd [1]: 4.4 nM | Kd [2]: 5 nM
Substance: eGFP-tagged mouse WNT-3A (from UniProt P27467 19-352) (ligand)
